From publication doi:10.1101/2024.05.17.594718 (bioRxiv, 2024)

Molecular target: LysP-GFP (Pseudomonas aeruginosa PAO1 LysP fused to GFP-His8) (Pseudomonas aeruginosa strain PAO1, UniProt Q9HVG3)
Test: GFP thermal shift

B1: nanobody Nb5755 (VHH)
VHH: QVQLQESGGGLVQGGSLRLSCAASGRTFSIYGMAWVRQASGKEREFVAAMPRGGGTTNYADSVKGRFSISRDNAKNTVDLQMNSLKPEDTAVYYCVADRGFTLRLGIQHDYWGQGTQVTVSS
  increase in melting temperature: 20 °C
